Source: the DeepSol protein solubility set

Assay: soluble on expression in E. coli; label from the status in PepcDB or PDB records

Sequence	soluble on expression in E. coli
MSSNVPADMINLRLILVSGKTKEFLFSPNDSASDIAKHVYDNWPMDWEEEQVSSPNILRLIYQGRFLHGNVTLGALKLPFGKTTVMHLVARETLPEPNSQGQRNREKTGESNCCVIL	soluble
MSLTTIKEIAQKSGYSPATVSRLLNNDPNLSITADTKNKILEIANKLGYWKDHQEKEIKPTIALLYRTNHKEQLQDEYFTSLKQALVETVKQKSMKMKTFYNVKDLIENASLFQGFIGVGAAPIENAELLELHKVLPNGVFVDTNPAPELFDSIRPNLSLTVKNAIDLFIKNDCKTIGFIGGVGPKHDHIQENDPRAVAFAEYMKVRNKDTNYMFVSGPFSVENGYELGKEVVKECEDNLPDAFLIASDTLSVGVLQAFNEENVNVPKDTAILSINNSNVVKYVSPPLSSYNINQQEMIDLALTMLTNLIIQPDRAHIDVNMNTDLVVRKSFVPKGEGHHHHHH	soluble
SNAKSEIGKYAPFFSLPNAKGEKITRSSDAFKQKSLLINFWASWNDSISQKQSNSELREIYKKYKKNKYIGMLGISLDVDKQQWKDAIKRDTLDWEQVCDFGGLNSEVAKQYSIYKIPANILLSSDGKILAKNLRGEELKKKIENIVEEA	soluble
METIKIGVVGLGTVGTGVVKMLQAHQEKISEITGRKLELACVVVHNLKKHEQVDLGDVQMTDQIATLLDDPSIQIMVEVMGSIHPAKEYITQALQAGKHVVTANKDLIAQYGRELVQIARENHRDLFYEASVAGGIPILRTIDNSFAADRIQRVMGIVNGTTNYIMTQM	not soluble
MTTTTTFKGVDPNSRNSSRVLRPPGGGSNFSLGFDEPTEQPVRKNKMASNIFGTPEENQASWAKSAGAKSSGGREDLESSGLQRRNSSEASSGDFLDLKGEGDIHENVDTDLPGSLGQSEEKPVPAAPVPSPVAPAPVPSRRNPPGGKSSLVLG	soluble
MIAVQRAVESRSIPPKAIVPVYVATSRMIQNNYSQPYGAERSNKVHYNRVDVGIPQKHVKGVVETNAYKPTHDKYFAAVALQKYDNKEQFKQQLNADLEKKTPGKREIFLFIHGYNNNFADGTFRTAQFTYDYSLNVVTVHYSWPSAGSVPLYIYDRDSANFARDGLIELLTLISETKADQISVIAHSMGNFVIMEAFRTLALQGKYKPIQRITSFLMAAPDIDIDVFERQLNDIKKLPQPTAILVSRADKALAVSGRLTGGHHRVGDGSDIEMLRKNGIAVLDFSNVDGGAHNVFASSPTLMALAREGSLASTIMQGTELSPSQALLADSSSVLEKTTHLILYTPLRLLSPLTRQ	not soluble
GMDPKHGNLFADVPVGAPDEIFQPLLERKGLKIERIISNGQASPPGFWYDSPQDEWVMVVSGSAGIECEGDTAPRVMRPGDWLHVPAHCRHRVAWTDGGEPTVWLAVHCDAA	soluble
MVLLKEYRVILPVSVDEYQVGQLYSVAEASKNETGGGEGVEVLVNEPYEKDDGEKGQYTHKIYHLQSKVPTFVRMLAPEGALNIHEKAWNAYPYCRTVITNEYMKEDFLIKIETWHKPDLGTQENVHKLEPEAWKHVEAIYIDIADRSQVLSKDYKAEEDPAKFKSIKTGRGPLGPNWKQELVNQKDCPYMCAYKLVTVKFKWWGLQNKVENFIHKQEKRLFTNFHRQLFCWLDKWVDLTMDDIRRMEEETKRQLDEMRQKDPVKGMTADD	soluble
GHMEDFWVQYGDEMLPVIGDFPRKGDYLPSFMLVDDQKHDAALESFSHTPKLIVTLLSVDEDEHAGLLLLRETRRFLDSWPHLKLIVITVDSPSSLARARHEHGLPNIALLSTLRGRDFHKRYGVLITEYPLSGYTSPAIILADAANVVHYSERLANTRDFFDFDAIEKLLQEGEQQAMAAEREAAEARQEQDAEREKGTERLLEKAKLIQDQLNRNGDPGRGS	soluble
MGSDKIHHHHHHMINQERLVNEFMELVQVDSETKFEAEICKVLTKKFTDLGVEVFEDDTMAVTGHGAGNLICTLPATKDGVDTIYFTSHMDTVVPGNGIKPSIKDGYIVSDGTTILGADDKAGLASMFEAIRVLKEKNIPHGTIEFIITVGEESGLVGAKALDRERITAKYGYALDSDGKVGEIVVAAPTQAKVNAIIRGKTAHAGVAPEKGVSAITIAAKAIAKMPLGRIDSETTANIGRFEGGTQTNIVCDHVQIFAEARSLINEKMEAQVAKMKEAFETTAKEMGGHADVEVNVMYPGFKFADGDHVVEVAKRAAEKIGRTPSLHQSGGGSDANVIAGHGIPTVNLAVGYEEIHTTNEKIPVEELAKTAELVVAIIEEVAK	not soluble
MPGLLLCEPTELYNILNQATKLSRLTDPNYLCLLDVRSKWEYDESHVITALRVKKKNNEYLLPESVDLECVKYCVVYDNNSSTLEILLKDDDDDSDSDGDGKDLVPQAAIEYGRILTRLTHHPVYILKGGYERFSGTYHFLRTQKIIWMPQELDAFQPYPIEIVPGKVFVGNFSQACDPKIQKDLKIKAHVNVSMDTGPFFAGDADKLLHIRIEDSPEAQILPFLRHMCHFIEIHHHLGSVILIFSTQGISRSCAAIIAYLMHSNEQTLQRSWAYVKKCKNNMCPNRGLVSQLLEWEKTILGDSITNIMDPLY	soluble
MLDLQISKKTVDPLKRPPHSVEAEQSIIGGLMLDNQVWDKVSNKLCETDFYRTEHRILFRAISALAKKDQPFDVVTLLDALKTRNELDDAGGEAYLFELANNTPSVANVTAYADIVREKSVQRQLIAVATEIADSAYNPAGREVPELLDMAETKVFAIGEQTASDGGPENIKSILVRAVEKIDALYHNGDAITGLATGLSDLDEMTSGLQPSDLIIVAGRPSMGKTTLVMNMAEHAAIKAGKPVLVFSMEMPADSLAMRMMSSLGRIDQHRIRTGKLDDNDWPRVTSAVHMLSEAPLFIDDTPALSPGEMRARARRLAKEHGSLGLIVVDYLQLMKVPGFNADNRTAEISEISRSLKSLAKELQVPVIALSQLNRSLEQRADKRPVMSDLRESGAIEQDADLICFIYRDEVYNEDSPDKGTAEIIVAKQRNGPIGKVRVAFLGKYTRFEDLAFNGYQGVE	not soluble
MPFHIGSGCLPAIISNRRIYRIAWSDTPPEMSSWEKMKEFFCSTHQAEALECIWTICHPPAGTTREDVVSRFELLRTLAYDGWEENIHSGLHGENYFCILDEDSQEILSVTLDDVGNYTVNCQGYSETHHLTMATEPGVERTDITYNLTSDIDAAAYLEELKQNPIINNKIMNPVGQCESLMTPVSNFMNEKGFDNIRYRGIFIWDKPTEEIPTNHFAVVGNKEGKDYVFDVSAHQFENRGMSNLNGPLILSADEWVCKYRMATRRKLIYYTDFSNSSIAANAYDALPRELESESMAGKVFVTSPRWFNTFKKQKYSLIGKM	not soluble
MDRVESLANQIFEDYKDYGVDRKEIVEKLRKLLIEFRVPENEAVRTIRNYIIREYGAPATVRRERITKIEEIKEPNKWVTVKAKVIQLWESSSPSIAQVGLIGDETGYIRFLVWTKAKKQPVDEGKSYIFRNVVVDDYGGVLRLNVTKISEIEEIEEDVKVKPPEELSEDVEVVGALVAIQQNSGLIQRCSVEGCNRVIKMGKCPEHGKTKAKDDLRIKGVLDDGYRTYEVIINEEGVESLTGINLEKAKKIAEETLDRGAVLTELKKMLLGKYLRVVGTATPRYLIAKHVEFFRPDIRKEIEKVKALLEEV	not soluble
MAHHHHHHMGTLEAQTQGPGSMFKLTGRKALVTGATGGIGEAIARCFHAQGAIVGLHGTREDKLKEIAADLGKDVFVFSANLSDRKSIKQLAEVAEREMEGIDILVNNAGITRDGLFVRMQDQDWDDVLAVNLTAASTLTRELIHSMMRRRYGRIINITSIVGVVGNPGQTNYCAAKAGLIGFSKALAQEIASRNITVNCIAPGFIKSAMTDKLNEKQKEAIMAMIPMKRMGIGEEIAFATVYLASDEAAYLTGQTLHINGGMAMI	soluble
MGSDKIHHHHHHMISNQILQNTIDGLKGITRTDLCVIDVEGKILAATFPNAEAFIEPAQAFVASPADSQVINGCQFFKVFDDHQLEYVLLAYGDSEDVYMIGKIASFQIQNLLVAYKERFDKDNFIKNLLLDNLLLVDIYNRAKKLHIDIEVRRVVFIVETNREKDGNELEKIRSLFGGKSKDFVTAVDEKNIIVVKELAENETYDDLRKTAEVILNLFRSEADGVHIAYGTVINELKEVSRSYKEARMALDVGKIFFEERNIIAYSQLGIGRLIYQLPIPLCKMFIKEIFDGKSPDDFDEEILSTINKFFENSLNVSETSRQLYIHRNTLVYRLDKLQKSTGLDLRVFEDAITFKIALMVVKYMKYMESMDY	not soluble
HHHHHHGILMMANRMILNETAWFGRGAVGALTDEVKRRGYQKALIVTDKTLVQCGVVAKVTDKMDAAGLAWAIYDGVVPNPTITVVKEGLGVFQNSGADYLIAIGGGSPQDTCKAIGIISNNPEFADVRSLEGLSPTNKPSVPILAIPTTAGTAAEVTINYVITDEEKRRKFVCVDPHDIPQVAFIDADMMDGMPPALKAATGVDALTHAIEGYITRGAWALTDALHIKAIEIIAGALRGSVAGDKDAGEEMALGQYVAGMGFSNVGLGLVHGMAHPLGAFYNTPHGVANAILLPHVMRYNADFTGEKYRDIARVMGVKVEGMSLEEARNAAVEAVFALNRDVGIPPHLRDVGVRKEDIPALAQAALDDVCTGGNPREATLEDIVELYHTAW	soluble
SMGTRPRRKKHDYRIALFGGSQPQSCRYFNPKDYSWTDIRCPFEKRRDAACVFWDNVVYILGGSQLFPIKRMDCYNVVKDSWYSKLGPPTPRDSLAACAAEGKIYTSGGSEVGNSALYLFECYDTRTESWHTKPSMLTQRCSHGMVEANGLIYVCGGSLGNNVSGRVLNSCEVYDPATETWTELCPMIEARKNHGLVFVKDKIFAVGGQNGLGGLDNVEYYDIKLNEWKMVSPMPWKGVTVKCAAVGSIVYVLAGFQGVGRLGHILEYNTETDKWVANSKVRAFPVTSCLICVVDTCGANEETLET	soluble
MAHHHHHHMKQVKAAFEANKRVYESVLLTFKGVDGYDVYNCSVPFSYKGKTHIYGRVEKRDIWAASHVRLFEETGKDEFTAVPELSWELEDPYIAKINNEMIFGGTRVRKNGNAILSYYGYFYRGTPDELTYFTRGPGCMKDIRVLQLQDGRLGVFSRPRVGRKASIGFVILNSIDELGAEVIAKAPPLDILSENAWGGVNQAYLLSSGKVGCIGHYSYEDTNEKQQPQSVYVNYAFVLDPQSRAITGAKIIGTKSCYPPCEPKVPLLADCVFASGIVMRSDGKVDLYSGVGDSHEGRITIDYPFKGHGTIIGDLHFPMASSL	soluble
MGSDKIHHHHHHVPEQHICTYEYRLANPNPRPIVGRFQLNFTLDVNGCESGTPVLYLEHVQVHATVRYLKRGDLKLTLFSPSGTRSVLLPPRPQDFNANGFHKWPFLSVQQWGEDPRGTWLLMVESVTTNPAATGTFHDWTLLLYGTADPAQSGDPVYSATPATSQGVLSRVHQLTSQILITIAIHLVVNA	not soluble
RIEDIETKNIQYEERVSVQADLGSQTLHVRGLIDSGNQLYDPLTKTPVMIIYIDKLEPIFGTAETMIIRNTDPLEAIEQLDDSFRFLDKMRLIPYRGVGQQNQFLLCVKPDHVTIMTKEEMISADKCLIGISTTKLSADGEFDAIIHPKMLSGKAVKHVS	soluble
MFLRLFKYLWPERYLPEIPAQDPFDENPPPCGPGRVGVLLVNLGTPDEPTRGAIRRYLGEFLSDPRVIEIPRYLWMPILHGLVLAMRPKKLAPRYAGIWMEEGSPLLVYSQRQAAGVRQGLAARGVHAEVELAMRYGKPSIPAAITALRERGCDHILAVPLYPQYAASTTATVVDAVTRHAGRLRDQPALRFVKRFHNDPAYVEAQAGRIAEFWQAHGRPQKLVMSFHGLPRYSIELGDPYYRDCLDTARLLRERLGLREDEVEVTFQSRFGSARWLEPYTEPTLAELARQGVTEVDVVCPGFVADCLETLEEISQECRDAFVAAGGRQFRYIPALNDCPPWIEGLTDLVERQLRGWPTGNP	not soluble
